From the supplement of paper PMC9732359
± gives the uncertainty stated by the source.

Assay: protein stability index of a GFP-peptide fusion (yeast GPS) (PSI 1-4); higher = more stable; sorted into four equal gates, so the index is relative within each strain
How it was run: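 Tiled 17-residue peptides from yeast proteins were fused downstream of GFP on a plasmid that also expresses Cherry, and the pooled library was carried in yeast. Mid-log cultures grown in leucine-free medium were sorted into four equal gates by GFP/Cherry fluorescence ratio. Plasmids from each gate were PCR-amplified and Illumina-sequenced, and reads were assigned to strains by barcodes. Each peptide's protein stability index is the sum, over gates, of the gate's read frequency multiplied by its gate number.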

| Sequence | protein stability index (doa10∆) | protein stability index (pdr5∆) | protein stability index (san1∆) | protein stability index (ubr1∆) |
| --- | --- | --- | --- | --- |
| EEKQKSYKFPRGTTAVL [PUP1] | 3.37 ± 0.12 | 3.11 ± 0.13 | 3.14 ± 0.099 | 2.91 ± 0.088 |
| FDQAGKKVSRRNARATR [RPL13A] | 2.51 ± 0.073 | 3.36 ± 0.057 | 1.92 ± 0.12 | 2.34 ± 0.067 |
| FFKPLDYITEAVFKIVL [SNU114] | 2.06 ± 0.047 | 1.95 ± 0.055 | 1.47 ± 0.073 | 1.88 ± 0.035 |
| ANLGKYGILSIDDLIHE [RPL7A] | 1.78 ± 0.092 | 1.98 ± 0.094 | 1.54 ± 0.17 | 1.15 ± 0.086 |
| APIQLKIDLLSGQFYFR [RGR1] | 2.63 ± 0.14 | 2.86 ± 0.16 | 2.15 ± 0.23 | 3.02 ± 0.082 |
| PGIMLRQMNLVITLLNN [YCS4] | 1.2 ± 0.06 | 1.11 ± 0.042 | 1.14 ± 0.13 | 1.19 ± 0.041 |
| KKSVNKLDKQINMADRS [POP6] | 2.73 ± 0.062 | 2.94 ± 0.08 | 2.63 ± 0.079 | 2.83 ± 0.054 |
| LKLNHIIANINSFTKGN [SNU114] | 1.52 ± 0.059 | 2.15 ± 0.062 | 1.83 ± 0.054 | 1.84 ± 0.035 |
| NVAHRIKEDIKKQPSIL [SNF2] | 2.9 ± 0.15 | 3.21 ± 0.14 | 3.05 ± 0.097 | 3.19 ± 0.12 |
| AGNTTTGGGLFGSKPTG [YGL172W/NUP49] | 2.4 ± 0.084 | 2.18 ± 0.17 | 2.64 ± 0.11 | 2.21 ± 0.097 |
| KDHDLKIPLPEVHDLIG [POP1] | 3.11 ± 0.12 | 2.91 ± 0.14 | 2.73 ± 0.21 | 2.54 ± 0.11 |
| KIGEEDYGEEIKSGVAK [MTW1] |  | 2.93 ± 0.14 |  | 3.31 ± 0.12 |
| VSTKTNEYRLAFYQVTP [RPL22A] | 1.86 ± 0.038 | 2.19 ± 0.04 | 2.6 ± 0.056 | 2.48 ± 0.048 |
| DVLINELLDQVTLGREG [CDC53] | 3.06 ± 0.078 | 3.1 ± 0.073 | 3.06 ± 0.08 | 3.17 ± 0.066 |
| REKRAREKAEAEAEKKK [RPL13A] |  | 3.62 ± 0.13 | 3.31 ± 0.061 |  |
| ESPNYCNALIHIKFSAG [SRB4] | 1.66 ± 0.042 | 1.83 ± 0.039 | 1.93 ± 0.069 | 2.04 ± 0.034 |
| VLKVDKRFMNTSQNPQR [BRR2] | 3 ± 0.056 | 3.2 ± 0.06 | 3.21 ± 0.069 | 2.99 ± 0.04 |
| KEALQNNIFKEFTSKIG [SMC1] | 2.22 ± 0.064 | 2.3 ± 0.082 | 2.52 ± 0.11 | 2.24 ± 0.073 |
| GPRNTEEKGWVPVTKLG [RPS2] | 3.55 ± 0.1 | 3.46 ± 0.1 | 3.61 ± 0.05 | 3.67 ± 0.082 |
| AISTGAKIDVMLTIARL [RPN7] | 3.31 ± 0.16 | 3.23 ± 0.099 | 3.33 ± 0.054 | 3.38 ± 0.075 |
| KPAFSFGINTNTTKTAD [YLR335W/NUP2] | 2.98 ± 0.098 | 3.09 ± 0.1 | 3.11 ± 0.063 | 3.46 ± 0.064 |
| VKFYEIFNFDQLVEITE [SRB8] | 1.24 ± 0.11 | 1.35 ± 0.088 | 1.58 ± 0.14 | 1.37 ± 0.058 |
| LAKILARSIDVEKGVNP [ECM29] | 1.21 ± 0.09 | 1.21 ± 0.062 | 1.4 ± 0.17 | 1.07 ± 0.071 |
| IWLIKCCYFIEWKSNHK [SRB8] | 1.69 ± 0.067 | 2.12 ± 0.063 | 2.55 ± 0.063 | 2.59 ± 0.15 |
| LLSLISTTAALQSISSL [RPN7] | 1.94 ± 0.053 | 1.95 ± 0.05 | 1.77 ± 0.075 | 2.24 ± 0.049 |
| KVKPIRGFCQRLKGKQG [RPO31] | 2.79 ± 0.14 | 2.97 ± 0.16 | 2.79 ± 0.13 |  |
| SKQVTDYYQSIYAKYGA [FAS2] | 2.73 ± 0.051 | 2.67 ± 0.052 | 2.54 ± 0.057 | 2.77 ± 0.041 |

| Sequence | protein stability index (doa10∆) | protein stability index (pdr5∆) | protein stability index (san1∆) | protein stability index (ubr1∆) |
| --- | --- | --- | --- | --- |
| EDMIRSVFDATSDPVMH [RPN1] |  |  | 3.15 ± 0.23 |  |
| GSQKTFEIDDEHRIRVF [RPS6A] | 1.75 ± 0.089 | 2.76 ± 0.14 | 1.97 ± 0.16 | 2.5 ± 0.21 |
| KSIIGKLTAERANLRKY [POP1] | 2.72 ± 0.059 | 2.92 ± 0.081 | 2.8 ± 0.07 | 2.6 ± 0.074 |
| FARLSRLLSLWEVFQMA [RPC82] | 1.9 ± 0.11 | 1.97 ± 0.096 | 2.86 ± 0.13 | 2.08 ± 0.051 |
| IKKMLHLVWMKGTNDEG [YCS4] | 3.17 ± 0.2 | 3.51 ± 0.11 | 3.19 ± 0.16 | 3.33 ± 0.18 |
| LGCTLVTLLANVRALYM [RMP1] | 1.62 ± 0.17 | 1.85 ± 0.21 | 2.74 ± 0.16 | 2.06 ± 0.073 |
| STLEPTLRKELEQIQVQ [YIL149C/MLP2] | 2.75 ± 0.096 | 3.01 ± 0.088 | 2.89 ± 0.062 | 2.3 ± 0.048 |
| PQGFSSVERGRKRAHSL [REC8] | 3.38 ± 0.11 | 3.4 ± 0.12 | 3.36 ± 0.048 | 3.19 ± 0.067 |
| RQSSDESDNYRLLPNGS [YML031W/NDC1] | 3.03 ± 0.06 | 2.97 ± 0.06 | 3.13 ± 0.078 | 3.05 ± 0.054 |
| LEEVEGSCTGKFGYILC [RPB7] | 2.14 ± 0.067 | 2.56 ± 0.057 | 2.1 ± 0.066 | 2.21 ± 0.046 |
| GSTFKVNQEFIFEAISL [YJL039C/NUP192] | 2.33 ± 0.1 | 2.31 ± 0.12 | 1.43 ± 0.15 | 1.49 ± 0.079 |
| QTLSSHLEALQPLFSTV [PGD1] | 1.96 ± 0.031 | 1.97 ± 0.037 | 2.2 ± 0.052 | 2.49 ± 0.034 |
| GALPPDLSLIVKARHGG [CYT1] | 1.83 ± 0.23 | 1.97 ± 0.14 |  | 2.23 ± 0.17 |
| SNIIHDESDTISFRSNL [SNF6] | 2.79 ± 0.1 | 2.68 ± 0.079 | 2.85 ± 0.098 | 2.7 ± 0.067 |
| SSGFNEDIVGALRRRVG [REC8] | 1.17 ± 0.085 | 1.16 ± 0.055 | 1.44 ± 0.26 | 1.11 ± 0.11 |
| SLLPYYHLTKAVKLGDL [RPN3] | 2.21 ± 0.052 | 1.74 ± 0.052 | 1.72 ± 0.073 | 1.78 ± 0.066 |
| IEPELFNGYNPEKKEMI [FAS2] | 3.18 ± 0.095 | 3.25 ± 0.13 | 3.33 ± 0.092 | 3.43 ± 0.14 |
| ELPKKLLNLPPFQVSSF [SRB8] | 1.77 ± 0.039 | 1.85 ± 0.034 | 1.9 ± 0.055 | 1.78 ± 0.041 |
| SEEINQYVTQIEQEKQE [PRE6] | 2.68 ± 0.075 | 1.76 ± 0.063 | 2.59 ± 0.085 | 2.62 ± 0.086 |
| EGVEYSFLHVDDKLAYI [POP8] | 1.86 ± 0.097 | 2.1 ± 0.088 | 1.86 ± 0.11 | 2.04 ± 0.074 |
| TPLTENILIASLMDTLI [YCG1] | 1.86 ± 0.049 | 1.7 ± 0.04 | 2.07 ± 0.069 | 2.35 ± 0.035 |
| SGMGPDYRVLVDKSRKV [PRE8] | 3 ± 0.14 | 2.21 ± 0.19 |  | 2.98 ± 0.24 |
| CHDELKALPMLEQVEFE [MED4] | 3.17 ± 0.14 | 3.12 ± 0.3 | 2.7 ± 0.21 | 3.29 ± 0.12 |
| AFVKDMQVYLVPIERVA [RPC37] | 1.18 ± 0.13 | 1.39 ± 0.27 | 1.39 ± 0.19 | 1.27 ± 0.21 |
| EHGYQSRGFEVMYNGHT [RPB2] | 2.92 ± 0.15 | 2.62 ± 0.18 | 2.88 ± 0.15 | 2.61 ± 0.19 |
| QTDADRVKDPQWLIMLG [RIP1] | 3.19 ± 0.16 | 3.22 ± 0.11 |  | 2.6 ± 0.12 |
